Data reported in US20150359864A1, “PHARMACEUTICAL COMPOSITION CONTAINING PEPTIDES” (ONCOTHERAPY SCIENCE, INC., priority 2012, published 2015).

Tests used:
[1] = Combination peptide injection preparation using sodium carbonate/arginine solution (Example 6); assay type: physicochemical; set-up: key to Dissolution on successive addition, Example 6 (Na2CO3/Arg) (2 mg each) / Dissolution of further 2 mg of Peptide 2, Example 6 (Na2CO3/Arg): ◯: Dissolved; X: White Turbid; settings: 2 mg each peptide added one after another to 1 ml sodium carbonate/arginine solvent
Method: In order to prepare an injection preparation containing combination of the peptides shown in Table 1, the 10 types of peptides shown in Table 1 were added in an amount of 2 mg each to 1 ml of the injection solvent containing sodium carbonate and arginine as used in Example 3. The addition of each peptide was conducted in the same manner as in Example 4.

[2] = Preparation of single peptide injection preparations using sodium carbonate solution (Example 1); assay type: physicochemical; settings: for Whether injection preparation could be prepared (in words): 5 mg to 20 mg peptide in 1 ml injection solvent containing sodium carbonate; for Peptide concentration at which injection preparation could be prepared, Example 1 (Na2CO3): 41 mg sodium carbonate decahydrate in 1 ml injection solvent, class symbol; for pH of injection preparation, Example 1 (Na2CO3): injection solvent containing sodium carbonate
Method: 41 mg of sodium carbonate decahydrate (Na2CO3.10H2O) was dissolved in 1 ml of an injection solvent to obtain an injection solvent containing sodium carbonate. In order to prepare formulations of the each peptide that was not dissolved in an injection solvent in Comparative Example 1, Peptides 1, 2, 4, 7, and 10 were separately added to 1 ml of injection solvents containing sodium carbonate.
In the case of Peptide 1, it was confirmed that the injection preparation could be obtained with the addition of 9 mg of peptide at the maximum. All the obtained injection preparations had pH levels within adequate range for injection (Table 2).

[3] = Preparation of injection preparations using sodium carbonate/arginine solution (Example 3); assay type: physicochemical; settings: for Peptide concentration at which injection preparation could be prepared, Example 3 (Na2CO3/Arg): 41 mg sodium carbonate decahydrate and 40 mg L-arginine in 1 ml injection solvent; for pH of injection preparation, Example 3 (Na2CO3/Arg): injection solvent containing sodium carbonate and arginine
Method: 41 mg of sodium carbonate decahydrate and 40 mg of L-arginine were dissolved in 1 ml of an injection solvent to obtain an injection solvent containing sodium carbonate and arginine.
In the case of Peptide 3, it was confirmed that the injection preparation could be obtained with the addition of 15 mg of peptide at the maximum. All the obtained injection preparations had pH levels within adequate range for injection (Table 2).

[4] = Combination peptide injection preparation using arginine solution (Example 4); assay type: physicochemical; set-up: key to Dissolution on successive addition, Example 4-1 (Arg) (1 mg each) / Dissolution on successive addition, Example 4-2 (Arg) (2 mg each): ◯: Dissolved; X: White Turbid; settings: for Dissolution on successive addition, Example 4-1 (Arg) (1 mg each): 1 mg each peptide added one after another to 1 ml arginine solvent
Method: In order to prepare an injection preparation containing combination of the peptides shown in Table 1, the 10 types of peptides shown in Table 1 were added in an amount of 1 mg each to 1 ml of the injection solvent containing arginine as used in Example 2. The entire amount of one peptide was dissolved upon addition thereof to obtain a colorless and clear solution, and another peptide was then added thereto.
Subsequently, preparation of another injection preparation containing combination of the peptides was attempted in the same manner as described above, except that the amount of each peptide added was changed to 2 mg. […] Thus, no other peptides were added thereafter.

[5] = Preparation of single peptide injection preparations using arginine solution (Example 2); assay type: physicochemical; settings: for Whether injection preparation could be prepared (in words): 5 mg to 20 mg peptide in 1 ml injection solvent containing arginine; for Peptide concentration at which injection preparation could be prepared, Example 2 (Arg): 40 mg L-arginine in 1 ml injection solvent, class symbol; for pH of injection preparation, Example 2 (Arg): injection solvent containing arginine
Method: 40 mg of L-arginine was dissolved in 1 ml of an injection solvent to obtain an injection solvent containing arginine. In order to prepare formulations of each peptide that was not dissolved in an injection solvent in Comparative Example 1, Peptides 1, 2, 4, 7, and 10 were separately added to 1 ml of injection solvents containing arginine.
In the case of Peptide 1, it was confirmed that the injection preparation could be obtained with the addition of 6 mg of peptide at the maximum. All the obtained injection preparations had pH levels within adequate range for injection (Table 2).

[6] = Combination peptide injection preparation using sodium carbonate solution (Example 5); assay type: physicochemical; set-up: key to Dissolution on successive addition, Example 5 (Na2CO3) (2 mg each) / Dissolution of further 2 mg of Peptide 2, Example 5 (Na2CO3): ◯: Dissolved; X: White Turbid; settings: 2 mg each peptide added one after another to 1 ml sodium carbonate solvent
Method: In order to prepare an injection preparation containing combination of the peptides shown in Table 1, the 10 types of peptides shown in Table 1 were added in an amount of 2 mg each to 1 ml of the injection solvent containing sodium carbonate as used in Example 1. The addition of each peptide was conducted in the same manner as in Example 4.

[7] = Preparation of single peptide injection preparations using injection solvent (Comparative Example 1); settings: for Whether injection preparation could be prepared (in words): 2 mg to 20 mg peptide in 1 ml injection solvent; for Peptide concentration at which injection preparation could be prepared, Comparative Example 1 (injection solvent): injection solvent (water), room temperature
Method: Pharmaceutical water defined by the Japanese Pharmacopoeia was used as an injection solvent.
In order to prepare formulations containing one of the peptides shown in Table 1, each of the peptides shown in Table 1 were added to 1 ml of an injection solvent. The resultants were agitated at room temperature so as to dissolve the entire amounts of the peptides added, and thereby colorless and clear solutions of each peptide were obtained. Thereafter, the peptide solutions were sterilized via filtration (with the use of a 0.22-μm filter) to obtain injection preparations.
The amounts of peptides added varied within the range of 2 mg to 20 mg, and injection preparations were prepared at each concentration. […] For these peptides, peptide concentrations that enable preparation of injection preparations were investigated.

[8] = Stability of lyophilized formulation, peptide content in the vial by HPLC (Example 7); assay type: physicochemical; settings: 25 degrees C., humidity 60%, relative to comparative solution peak area = 100%
Method: 107.7 g of L-arginine and 110.4 g of sodium carbonate hydrate were dissolved in 5,500 ml of an injection solvent. Peptide 1, Peptide 2, Peptide 3, and Peptide 4 were dissolved therein in amounts of 6.2 g, 7.5 g, 8.7 g, and 8.0 g, respectively. Thereafter, the total amount of the solution was adjusted to 7,000 ml with the addition of an injection solvent, and a combination peptide solution was obtained. […] Following lyophilization, the vial was fully stoppered and the aluminum cap seaming was conducted. Thus, a lyophilized formulation was produced.
Further, the results shown above were subjected to regression analysis, so as to predict stability 24 months later.

| Sequence | Dissolution on successive addition, Example 6 (Na2CO3/Arg) (2 mg each) [1] | Peptide concentration at which injection preparation could be prepared, Example 3 (Na2CO3/Arg) ([3]; class symbol) | pH of injection preparation, Example 3 (Na2CO3/Arg) [3] | Dissolution on successive addition, Example 4-1 (Arg) (1 mg each) [4] | Dissolution on successive addition, Example 5 (Na2CO3) (2 mg each) [6] | Whether injection preparation could be prepared (in words) [7] | Peptide concentration at which injection preparation could be prepared, Comparative Example 1 (injection solvent) ([7]; class symbol) | other results |
| --- | --- | --- | --- | --- | --- | --- | --- | --- |
| DYLNEWGSRF (T cell epitope) [Peptide 10] | ◯ | ⊚ (20 mg/ml or more) | 10.14 | ◯ | ◯ | not possible to prepare the injection preparations regardless of the amounts of peptides added | X (0.08 mg/ml or less) | Whether injection preparation could be prepared (in words) [2]: possible to prepare the injection preparations regardless of the amounts of peptides added; Peptide concentration at which injection preparation could be prepared, Example 1 (Na2CO3) [2]: ⊚ (20 mg/ml or more); pH of injection preparation, Example 1 (Na2CO3) [2]: 9.35; Whether injection preparation could be prepared (in words) [5]: possible to prepare the injection preparations regardless of the amounts of peptides added; Peptide concentration at which injection preparation could be prepared, Example 2 (Arg) [5]: ⊚ (20 mg/ml or more); pH of injection preparation, Example 2 (Arg) [5]: 9.87 |
| SYRNEIAYL (T cell epitope) [Peptide 7] | ◯ | ⊚ (20 mg/ml or more) | 9.97 | ◯ | ◯ | not possible to prepare the injection preparations regardless of the amounts of peptides added |  | Whether injection preparation could be prepared (in words) [2]: possible to prepare the injection preparations regardless of the amounts of peptides added; Peptide concentration at which injection preparation could be prepared, Example 1 (Na2CO3) [2]: ⊚ (20 mg/ml or more); pH of injection preparation, Example 1 (Na2CO3) [2]: 9.18; Whether injection preparation could be prepared (in words) [5]: possible to prepare the injection preparations regardless of the amounts of peptides added; Peptide concentration at which injection preparation could be prepared, Example 2 (Arg) [5]: ⊚ (20 mg/ml or more); pH of injection preparation, Example 2 (Arg) [5]: 9.68; Peptide concentration at which injection preparation could be prepared, Comparative Example 1 (injection solvent) ([7]; numeric): 0.5 mg/mL |
| KVYLRVRPLL (T cell epitope) [Peptide 3] | ◯ |  |  | ◯ | ◯ | possible to prepare the injection preparations regardless of the amounts of peptides added | ⊚ (20 mg/ml or more) | Peptide concentration at which injection preparation could be prepared, Example 3 (Na2CO3/Arg) ([3]; numeric): 15 mg/mL; Maximum amount of peptide added that gave an injection preparation ([3]; in 1 ml injection solvent containing sodium carbonate and arginine): 15 mg; Dissolution on successive addition (in words), Example 4 ([4]; 2 mg each in 1 ml arginine solvent, added after Peptide 1 and Peptide 2): white turbidity; Dissolution on successive addition, Example 4-2 (Arg) (2 mg each) ([4]; 2 mg each peptide added one after another to 1 ml arginine solvent): X; Peptide content in the vial, 0 months [8]: 103.7%; Peptide content in the vial, 1 month [8]: 103.4%; Peptide content in the vial, 3 months [8]: 102.7%; Peptide content in the vial, 6 months [8]: 100.1% |
| EYCPGGNLP (EYCPGGNLF; T cell epitope) [Peptide 8] | ◯ | ⊚ (20 mg/ml or more) | 9.80 | ◯ | ◯ | possible to prepare the injection preparations regardless of the amounts of peptides added | ⊚ (20 mg/ml or more) |  |
| RFVPDGNRI (T cell epitope) [Peptide 6] | ◯ | ⊚ (20 mg/ml or more) | 10.55 | ◯ | ◯ | possible to prepare the injection preparations regardless of the amounts of peptides added | ⊚ (20 mg/ml or more) |  |
| RYCNLEGPPI (T cell epitope) [Peptide 5] | ◯ | ⊚ (20 mg/ml or more) | 10.20 | ◯ | ◯ | possible to prepare the injection preparations regardless of the amounts of peptides added | ⊚ (20 mg/ml or more) |  |
| VYGIRLEHF (T cell epitope) [Peptide 9] | ◯ | ⊚ (20 mg/ml or more) | 9.84 | ◯ | ◯ | possible to prepare the injection preparations regardless of the amounts of peptides added | ⊚ (20 mg/ml or more) |  |
